Data as given in doi:10.1101/2020.09.14.296129 (bioRxiv, 2020).

Target: calmodulin (calcium-loaded, holo-CaM) (UniProt P0DP23)
Assay: other fluorescence titration + ITC

| Binder | fold decrease of affinity for CaM against P454 [fold] | Kd [µM] |
| --- | --- | --- |
| ASAHWGQRALQGAQAVAAAQRLVSAAALMTQ [P454 H477S-I479A peptide] | ~20 |  |
| ASAHWGQEALQGAQAVAAAQELVHAIALMTQ [P454_(R12E) peptide (P454 with R461 and R474 substituted by glutamate)] |  | 22.7 |
| ASAHAGQRAAQGAQAVAAAQRLVHAIALMTQ [P454 W458A-L463A peptide] | 4 |  |
| ASAHWGQRALQGAQAVAAAQRAVSAAALMTQ [P454 L475A-H477S-I479A peptide] | ~20 |  |
